Consider three molecules from article PMC9239176, “Involvement of the DNA Phosphorothioation System in TorR Binding and Anaerobic TMAO Respiration in Salmonella enterica”.

For data set [1], the system named is DndF (Salmonella enterica serovar Cerro 87). Kind of data set: pull-down LC-MS/MS. The following applies: EMSA: 50 nM DNA, 20 mM Tris-HCl pH 8.0, 50 mM KCl, 10 mM MgCl2, 5 mM EDTA, 10 mM DTT, 5% glycerol, 28 C 30 min, gel at 4 C, pull-down: cell lysate, 4 C 4 h.
Data set [2] has as its system DndG (Salmonella enterica serovar Cerro 87). Nature of the data set: pull-down LC-MS/MS. The following applies: EMSA: 50 nM DNA, 20 mM Tris-HCl pH 8.0, 50 mM KCl, 10 mM MgCl2, 5 mM EDTA, 10 mM DTT, 5% glycerol, 28 C 30 min, gel at 4 C, pull-down: cell lysate, 4 C 4 h. A general note: A gel shift assay detects complexes by their altered migration in electrophoresis.
For data set [3], the system named is Biotin carboxyl carrier protein of acetyl-CoA carboxylase (Salmonella enterica serovar Cerro 87). Nature of the data set: pull-down LC-MS/MS. The following applies: EMSA: 50 nM DNA, 20 mM Tris-HCl pH 8.0, 50 mM KCl, 10 mM MgCl2, 5 mM EDTA, 10 mM DTT, 5% glycerol, 28 C 30 min, gel at 4 C, pull-down: cell lysate, 4 C 4 h.
A further data set concerns the target T1, TorR CTD (Salmonella enterica serovar Cerro 87, UniProt Q8ZKZ5 127-230).
T1 sequence: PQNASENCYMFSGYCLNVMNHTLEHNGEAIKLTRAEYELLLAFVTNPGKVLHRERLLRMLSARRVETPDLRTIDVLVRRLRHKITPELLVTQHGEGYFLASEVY
Kind of data set: EMSA; EMSA: 50 nM DNA, 20 mM Tris-HCl pH 8.0, 50 mM KCl, 10 mM MgCl2, 5 mM EDTA, 10 mM DTT, 5% glycerol, 28 C 30 min, gel at 4 C; pull-down: cell lysate, 4 C 4 h. The following applies: protein: recombinant; tags: His (pET28a, Ni-NTA).

Setting [4] is: phosphorothioate: strand 1 between G13 and A14, strand 2 between G15 and T16.

As for “GGCCCACTACGTGAACCATCACCCTAATCA (double strand) [B12]”, the figures for the binding signal (normalized spectral count) in data set [1] (setting [4]), in data set [2] (setting [4]) and in data set [3] (setting [4]) were 20.2, 30.9 and 1.41, respectively.
As to “GGCCCACTACGTGAACCATCACCCTAATCA (double strand) [B34]”, the binding signal (B34/B12 ratio) is 0.43 in data set [1], 0.32 in data set [2] and 2.78 in data set [3].

B1: tor box1, PT (dsDNA)
DNA 1: CCTGCGCGCGGTCTCTTTCTGTTCATATCT
DNA 2: AGATATGAACAGAAAGAGACCGCGCGCAGG
modifications: phosphorothioate GpsTTC/GpsAAC
For the molecule B1, the binding result with TorR CTD is given as “binds”.
